Reference: publication PMC5594205 (Molecular Cell, 2017)
Where two headings read alike, the source gives them in different places.

B1: Brca2 BRC4 peptide (peptide)
peptide: LLGFHTASGKKVKIAKESLDKVKNLFDE
B2: recombinant human Rad51 (natural protein, UniProt Q06609 1-339, looked up)
chain: MAMQMQLEANADTSVEEESFGPQPISRLEQCGINANDVKKLEEAGFHTVEAVAYAPKKELINIKGISEAKADKILAEAAKLVPMGFTTATEFHQRRSEIIQITTGSKELDKLLQGGIETGSITEMFGEFRTGKTQICHTLAVTCQLPIDRGGGEGKAMYIDTEGTFRPERLLAVAERYGLSGSDVLDNVAYARAFNTDHQTQLLYQASAMMVESRYALLIVDSATALYRTDYSGRGELSARQMHLARFLRMLLRLADEFGVAVVITNQVVAQVDGAAMFAADPKKPIGGNIIAHASTTRLYLRKGRGETRICKIYDSPCLPEAEAMFAINADGVGDAKD
B3: His6-MBP-Polymerase α (1-109) (domain or fragment, human, UniProt P09884 1-109, looked up)
chain: MAPVHGDDSLSDSGSFVSSRARREKKSKKGRQEALERLKKAKAGEKYKYEVEDFTGVYEEVDEEQYSKLVQARQDDDWIVDDDGIGYVEDGREIFDDDLEDDALDADEK

What was measured:
Test in all cases: pull-down
[1] = target: B2
[2] = target: recombinant human Pol α-primase complex (full-length) (human, UniProt P09884 1-1462; Q14181 1-598; P49642 1-420; P49643 1-509)
Sequence of recombinant human Pol α-primase complex (full-length) (Q14181 whole entry, chain 2 of 3): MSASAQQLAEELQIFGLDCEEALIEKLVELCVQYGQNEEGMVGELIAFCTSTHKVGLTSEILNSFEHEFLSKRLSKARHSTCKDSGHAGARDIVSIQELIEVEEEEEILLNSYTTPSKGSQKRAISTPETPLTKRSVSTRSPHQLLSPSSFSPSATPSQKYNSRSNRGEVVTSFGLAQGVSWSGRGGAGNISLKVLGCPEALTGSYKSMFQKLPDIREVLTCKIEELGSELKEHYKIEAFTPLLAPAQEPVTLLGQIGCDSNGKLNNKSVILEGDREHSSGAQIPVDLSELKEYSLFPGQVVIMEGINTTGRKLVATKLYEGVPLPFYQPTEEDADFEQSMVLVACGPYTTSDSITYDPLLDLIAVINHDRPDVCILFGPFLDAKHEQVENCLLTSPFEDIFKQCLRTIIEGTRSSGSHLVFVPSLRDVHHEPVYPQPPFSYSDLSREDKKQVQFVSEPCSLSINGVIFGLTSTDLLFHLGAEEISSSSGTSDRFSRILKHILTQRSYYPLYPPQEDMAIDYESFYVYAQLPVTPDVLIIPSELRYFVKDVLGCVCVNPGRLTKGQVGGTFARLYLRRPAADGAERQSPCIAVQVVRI
Sequence of recombinant human Pol α-primase complex (full-length) (P49642 whole entry, chain 3 of 3): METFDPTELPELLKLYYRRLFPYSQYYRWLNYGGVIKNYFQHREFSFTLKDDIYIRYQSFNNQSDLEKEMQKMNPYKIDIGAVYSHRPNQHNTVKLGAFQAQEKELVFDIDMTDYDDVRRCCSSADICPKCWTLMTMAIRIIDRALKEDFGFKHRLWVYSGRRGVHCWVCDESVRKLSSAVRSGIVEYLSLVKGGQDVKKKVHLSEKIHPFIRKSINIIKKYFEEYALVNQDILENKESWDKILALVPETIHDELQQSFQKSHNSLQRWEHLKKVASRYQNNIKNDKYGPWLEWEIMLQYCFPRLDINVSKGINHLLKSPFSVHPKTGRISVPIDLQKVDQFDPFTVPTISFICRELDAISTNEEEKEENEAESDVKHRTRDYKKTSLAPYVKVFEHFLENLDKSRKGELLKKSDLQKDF
Sequence of recombinant human Pol α-primase complex (full-length) (P49643 whole entry, chain 4 of 3): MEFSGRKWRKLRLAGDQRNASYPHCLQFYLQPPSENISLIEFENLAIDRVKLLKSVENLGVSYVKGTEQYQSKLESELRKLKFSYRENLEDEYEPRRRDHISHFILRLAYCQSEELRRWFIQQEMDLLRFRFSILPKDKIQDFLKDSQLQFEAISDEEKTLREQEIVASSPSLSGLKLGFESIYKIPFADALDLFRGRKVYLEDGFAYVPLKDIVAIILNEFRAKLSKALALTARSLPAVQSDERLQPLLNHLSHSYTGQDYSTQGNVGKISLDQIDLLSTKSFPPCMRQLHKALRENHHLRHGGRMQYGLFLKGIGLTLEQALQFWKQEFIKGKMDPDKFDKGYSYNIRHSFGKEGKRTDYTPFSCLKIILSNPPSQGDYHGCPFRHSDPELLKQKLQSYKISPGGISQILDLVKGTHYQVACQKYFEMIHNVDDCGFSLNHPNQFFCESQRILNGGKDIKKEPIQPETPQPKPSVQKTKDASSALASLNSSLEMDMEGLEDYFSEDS

[3] = target: B2; remark: listed apart in the source

Binder: B1
binding result [1]: binds

Binder: B2
binding result [2]: binds

Binder: B3
binding result [3]: binds
